Holding throughout (test): BLI
For orientation: Biolayer interferometry detects binding as a change in optical thickness at a sensor tip.

The target in assay [1] is T1, FMDV O/Tibet/99 146S antigen (foot-and-mouth disease virus serotype …).
Assay [2] concerns the target T2, FMDV A/AF72 146S antigen (foot-and-mouth disease virus serotype …).
Assay [3] concerns the target T1, FMDV O/Tibet/99 146S antigen. This is another data set of the same source.
Assay [4] addresses T2, FMDV A/AF72 146S antigen. The source holds these as a separate data set.

B1: pOA-2 (antibody, V domains shown)
VH: EEKVVESGGGLVQPGGSLRLSCVGSGFNFKNYEINWVRQAPGKALEWLAYITQTSDFIYYADSVKGRFTISRDNSRNTAYLQMNNLRTEDTARYFCTRAGLTGCKSRHCMYVWGPGAEVVVSS
VL: QTVIQEPAMSVSLGGTVTLTCGFISGSVTGTNYPSWFQQTPGQPPRLLIYYANSRPTEVPSRFSGAISGNKAALTITGAQAEDEADYFCCLYKTNNNILFGGGTHLTVL
A word on the koff: it is the rate constant with which the complex falls apart. A lower koff goes with a long-lived complex. Broadly, the Kd is a measure of binding affinity in units of concentration. Low readings indicate higher affinity, high ones lower affinity. Regarding B1, the koff in assay [1] worked out at 0.00242 s⁻¹; in assay [2], 0.00249 s⁻¹. The Kd stood at 4.85 nM in assay [3] and 4.44 nM in assay [4].

B2: pOA-13 (antibody, V domains shown)
VH: EGQLVQSGGGRVQPGGSLRLVCVGSGDDGLGHYAVTWVRQAPGRGLEWLASDASRVTTTYYADSVKGRFTSTLDIPHNTAYLQMNSLKTEDTARYFCARNVWTLDIWGPGVEVVVS
VL: QTVIQEPAMSVSLGGTVTLTCAFRGGSVDGDNYPGWLRQQTPGQPPRLLISSTNNRPTGVPSRFSGTISGNKATLTITGAQTEDEADYFCALWNDNNNRLIFGGGTRLTVL
For B2, the koff in assay [1] came out at 0.00143 s⁻¹; in assay [2] it was 0.00634 s⁻¹. For the same molecule, the dissociation constant (Kd) in assay [3] worked out at 1.8 nM; in assay [4] it was 5.11 nM.

B3: pOA-1 (antibody, V domains shown)
VH: EENVVESGGGLVRPGGSLRLSCIFSGFTFSTYSVRWVRQAPGKGLEFLTYIFKNVGDIDTADSVKGRFTISRDNSQNTAYLQMNSLRPEDTARYFCLVANKYWGPGVEVLVSS
VL: AIVLTQSPLSLSVSPGDSASISCRSSQSLVEDDGSSVLNWYLQRPGQSPQRLIYSAVGRDAGVPDRFSGSGSGTDFTLTISGVEAEDLGVYYCQQSKVSTTFGAGSKLDLK
Turning to B3, the koff is 2.88e-05 s⁻¹ in assay [1] and 0.00467 s⁻¹ in assay [2]. For the same molecule, the Kd in assay [4] was 2.48 nM.

The values are drawn from publication PMC11508087 (2024).
